Measurements: publication PMC10613257, “Cryo-EM structure of human PAPP-A2 and mechanism of substrate recognition” (Communications Chemistry, 2023)

Target: the molecule itself
Test: SEC; Superose 6 Increase 10/300 in 1X PBS

B1: Pregnancy-Associated Plasma Protein A (PAPP-A), wild type (enzyme, UniProt Q13219 82-1627, looked up)
chain: EARGATEEPSPPSRALYFSGRGEQLRLRADLELPRDAFTLQVWLRAEGGQRSPAVITGLYDKCSYISRDRGWVVGIHTISDQDNKDPRYFFSLKTDRARQVTTINAHRSYLPGQWVYLAATYDGQFMKLYVNGAQVATSGEQVGGIFSPLTQKCKVLMLGGSALNHNYRGYIEHFSLWKVARTQREILSDMETHGAHTALPQLLLQENWDNVKHAWSPMKDGSSPKVEFSNAHGFLLDTSLEPPLCGQTLCDNTEVIASYNQLSSFRQPKVVRYRVVNLYEDDHKNPTVTREQVDFQHHQLAEAFKQYNISWELDVLEVSNSSLRRRLILANCDISKIGDENCDPECNHTLTGHDGGDCRHLRHPAFVKKQHNGVCDMDCNYERFNFDGGECCDPEITNVTQTCFDPDSPHRAYLDVNELKNILKLDGSTHLNIFFAKSSEEELAGVATWPWDKEALMHLGGIVLNPSFYGMPGHTHTMIHEIGHSLGLYHVFRGISEIQSCSDPCMETEPSFETGDLCNDTNPAPKHKSCGDPGPGNDTCGFHSFFNTPYNNFMSYADDDCTDSFTPNQVARMHCYLDLVYQGWQPSRKPAPVALAPQVLGHTTDSVTLEWFPPIDGHFFERELGSACHLCLEGRILVQYASNASSPMPCSPSGHWSPREAEGHPDVEQPCKSSVRTWSPNSAVNPHTVPPACPEPQGCYLELEFLYPLVPESLTIWVTFVSTDWDSSGAVNDIKLLAVSGKNISLGPQNVFCDVPLTIRLWDVGEEVYGIQIYTLDEHLEIDAAMLTSTADTPLCLQCKPLKYKVVRDPPLQMDVASILHLNRKFVDMDLNLGSVYQYWVITISGTEESEPSPAVTYIHGSGYCGDGIIQKDQGEQCDDMNKINGDGCSLFCRQEVSFNCIDEPSRCYFHDGDGVCEEFEQKTSIKDCGVYTPQGFLDQWASNASVSHQDQQCPGWVIIGQPAASQVCRTKVIDLSEGISQHAWYPCTISYPYSQLAQTTFWLRAYFSQPMVAAAVIVHLVTDGTYYGDQKQETISVQLLDTKDQSHDLGLHVLSCRNNPLIIPVVHDLSQPFYHSQAVRVSFSSPLVAISGVALRSFDNFDPVTLSSCQRGETYSPAEQSCVHFACEKTDCPELAVENASLNCSSSDRYHGAQCTVSCRTGYVLQIRRDDELIKSQTGPSVTVTCTEGKWNKQVACEPVDCSIPDHHQVYAASFSCPEGTTFGSQCSFQCRHPAQLKGNNSLLTCMEDGLWSFPEALCELMCLAPPPVPNADLQTARCRENKHKVGSFCKYKCKPGYHVPGSSRKSKKRAFKTQCTQDGSWQEGACVPVTCDPPPPKFHGLYQCTNGFQFNSECRIKCEDSDASQGLGSNVIHCRKDGTWNGSFHVCQEMQGQCSVPNELNSNLKLQCPDGYAIGSECATSCLDHNSESIILPMNVTVRDIPHWLNPTRVERVVCTAGLKWYPHPALIHCVKGCEPFMGDNYCDAINNRAFCNYDGGDCCTSTVKTKKVTPFPMSCDLQGDCACRDPQAQEHSRKDLRGYSHG
notes: PAPP-A, mature form of 1547 amino acids after processing of the pro-peptide. numbers count on: the mature protein; also called FL PAPP-A; dimeric PAPP-A; source: Expi293F, secreted into the culture medium, purified (anti-FLAG, Superose 6 SEC)
- stoichiometry N: 2
